Molecular target: human HLA-A24 and β2-microglobulin (human)
Assay: MHC-peptide complex formation assay with human HLA-A24 and β2m (procedures of Example 1), sandwich ELISA, relative to positive control peptide

Row | Binder | Relative binding (%)
1 | LYFPNGETKY [TAL6 peptide No. 4 of Table 2, …] | 85
2 | HSLVGLALL [TAL6 peptide No. 2 of Table 2, …] | 61.7
3 | IVEWNVSLF [TAL6 peptide No. 13 of Table 2, …] | 41
4 | GYCVIVAAL [TAL6 peptide No. 8 of Table 2, …] | 118
5 | QYLLDTSTW [TAL6 peptide No. 11 of Table 2, …] | 111
6 | EWNVSLFSIL [TAL6 peptide No. 15 of Table 2, …] | 22.2
7 | RFVWFFSGI [TAL6 peptide No. 6 of Table 2, …] | 91.9
8 | EWNVSLFSI [TAL6 peptide No. 14 of Table 2, …] | 74
9 | GGIEFILCL [TAL6 peptide No. 16 of Table 2, …] | 25.3
10 | KYASENHLS [TAL6 peptide No. 5 of Table 2, …] | 64.6

Next, values leading:

Row | Relative binding (%) | Binder
11 | 126 | CYGKCARCI [TAL6 peptide No. 1 of Table 2, …]
12 | 116 | TFASTEGQYL [TAL6 peptide No. 10 of Table 2, …]
13 | 49.2 | TFASTEGQY [TAL6 peptide No. 9 of Table 2, …]
14 | 14.8 | GGIEFILCLI [TAL6 peptide No. 17 of Table 2, …]
15 | 72.4 | FFSGIVGGGL [TAL6 peptide No. 7 of Table 2, …]
16 | 28 | HIVEWNVSLF [TAL6 peptide No. 12 of Table 2, …]

— patent US20110038894A1
